T1: Bbc1, P47068
T1 sequence (P47068 1-78, looked up): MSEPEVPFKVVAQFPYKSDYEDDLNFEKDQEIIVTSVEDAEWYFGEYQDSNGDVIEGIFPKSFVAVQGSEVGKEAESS

T2: Bzz1-1, P38822
T2 sequence (P38822 478-572, looked up): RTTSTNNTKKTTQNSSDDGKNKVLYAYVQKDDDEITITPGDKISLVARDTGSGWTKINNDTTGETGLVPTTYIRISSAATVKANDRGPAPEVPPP

T3: Pin3, Q06449
T3 sequence (Q06449 53-122, looked up): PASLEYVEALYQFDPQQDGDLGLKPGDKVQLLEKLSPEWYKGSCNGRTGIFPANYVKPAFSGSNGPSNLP

T4: Abp1, P15891
T4 sequence (P15891 535-592, looked up): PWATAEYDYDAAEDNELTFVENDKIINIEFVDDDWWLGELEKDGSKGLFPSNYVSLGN

T5: Sla1-3, P32790
T5 sequence (P32790 344-424, looked up): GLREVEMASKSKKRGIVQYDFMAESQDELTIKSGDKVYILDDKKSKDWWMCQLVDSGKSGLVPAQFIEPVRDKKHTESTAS

T6: Sla1-2, P32790
T6 sequence (P32790 60-140, looked up): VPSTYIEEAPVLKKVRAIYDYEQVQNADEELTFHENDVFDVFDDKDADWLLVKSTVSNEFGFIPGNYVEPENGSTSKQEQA

T7: Boi2, P39969
T7 sequence (P39969 32-116, looked up): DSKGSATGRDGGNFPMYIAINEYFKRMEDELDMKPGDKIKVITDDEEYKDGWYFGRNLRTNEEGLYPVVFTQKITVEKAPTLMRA

T8: Lsb3, P43603
T8 sequence (P43603 385-451, looked up): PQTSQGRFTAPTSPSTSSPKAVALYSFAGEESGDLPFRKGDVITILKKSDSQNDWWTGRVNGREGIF

T9: Cyk3, Q07533
T9 sequence (Q07533 1-83, looked up): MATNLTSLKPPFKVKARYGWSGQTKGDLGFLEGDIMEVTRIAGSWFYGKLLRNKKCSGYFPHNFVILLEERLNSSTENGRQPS

T10: Lsb1, P53281
T10 sequence (P53281 45-122, looked up): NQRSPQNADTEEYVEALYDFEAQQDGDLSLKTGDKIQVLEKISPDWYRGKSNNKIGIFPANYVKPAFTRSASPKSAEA

T11: Bud14, P27637
T11 sequence (P27637 247-328, looked up): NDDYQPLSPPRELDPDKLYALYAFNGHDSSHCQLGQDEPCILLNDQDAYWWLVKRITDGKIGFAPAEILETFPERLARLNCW

T12: Hse1, P38753
T12 sequence (P38753 208-285, looked up): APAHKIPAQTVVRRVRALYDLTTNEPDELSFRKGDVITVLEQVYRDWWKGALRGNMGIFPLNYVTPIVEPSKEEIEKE

T13: Fus1, P11710
T13 sequence (P11710 432-512, looked up): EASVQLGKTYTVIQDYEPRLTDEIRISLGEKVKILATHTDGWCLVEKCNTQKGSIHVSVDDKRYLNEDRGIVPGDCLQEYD

T14: Myo5, Q04439
T14 sequence (Q04439 1072-1160, looked up): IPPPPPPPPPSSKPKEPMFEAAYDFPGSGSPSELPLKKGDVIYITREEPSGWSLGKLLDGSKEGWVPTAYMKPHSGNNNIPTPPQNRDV

T15: Lsb4, P32793
T15 sequence (P32793 402-468, looked up): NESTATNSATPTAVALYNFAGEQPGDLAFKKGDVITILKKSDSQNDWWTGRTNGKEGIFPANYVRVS

T16: Pex13, P80667
T16 sequence (P80667 295-386, looked up): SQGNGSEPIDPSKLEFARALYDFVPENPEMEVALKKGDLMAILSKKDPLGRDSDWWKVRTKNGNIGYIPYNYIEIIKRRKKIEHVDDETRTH

T17: Boi1, P38041
T17 sequence (P38041 1-86, looked up): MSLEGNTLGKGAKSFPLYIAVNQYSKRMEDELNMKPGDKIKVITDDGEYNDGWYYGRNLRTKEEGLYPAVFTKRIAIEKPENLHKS

T18: Bzz1-2, P38822
T18 sequence (P38822 568-633, looked up): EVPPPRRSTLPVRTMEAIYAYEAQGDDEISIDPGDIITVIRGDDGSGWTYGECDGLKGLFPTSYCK

T19: Hof1, Q05080
T19 sequence (Q05080 590-669, looked up): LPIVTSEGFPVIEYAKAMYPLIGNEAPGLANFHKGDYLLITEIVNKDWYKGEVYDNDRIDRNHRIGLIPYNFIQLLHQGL

T20: Nbp2, Q12163
T20 sequence (Q12163 103-180, looked up): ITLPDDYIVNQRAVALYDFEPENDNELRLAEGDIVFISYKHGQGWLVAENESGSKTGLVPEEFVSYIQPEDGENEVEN

T21: Cdc25, P04821
T21 sequence (P04821 50-136, looked up): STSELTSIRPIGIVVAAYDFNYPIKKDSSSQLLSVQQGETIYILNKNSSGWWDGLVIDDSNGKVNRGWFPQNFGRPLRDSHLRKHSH

B1: unnamed (peptide)
chain: GDHPKGPPPPPPPDE
B2: unnamed (peptide)
chain: MPAPPPPPPPPPGAF
B3: unnamed (peptide)
chain: QPPLPSSAPPIPTSH

molecular target: GST; assay: SPOT array; settings: median of control spots 978

SPOT intensity | Binder
0 | B1
0 | B2
0 | B3

molecular target: T1, Bbc1, P47068; assay: SPOT array; settings: median of control spots 796

SPOT intensity | Binder
1 | B1
0 | B2
0 | B3

molecular target: T2, Bzz1-1, P38822; assay: SPOT array; settings: median of control spots 4446

SPOT intensity | Binder
1 | B1
0 | B2
0 | B3

molecular target: T3, Pin3, Q06449; assay: SPOT array; settings: median of control spots 2171

SPOT intensity | Binder
2 | B1
1 | B2
0 | B3

molecular target: T4, Abp1, P15891; assay: SPOT array; settings: median of control spots 935

SPOT intensity | Binder
0 | B1
0 | B2
0 | B3

molecular target: T5, Sla1-3, P32790; assay: SPOT array; settings: median of control spots 5475

SPOT intensity | Binder
2 | B1
2 | B2
0 | B3

molecular target: T6, Sla1-2, P32790; assay: SPOT array; settings: median of control spots 712

SPOT intensity | Binder
0 | B1
0 | B2
0 | B3

molecular target: T7, Boi2, P39969; assay: SPOT array; settings: median of control spots 1161

SPOT intensity | Binder
1 | B1
0 | B2
0 | B3

molecular target: Myo3, P36006; assay: SPOT array; settings: median of control spots 468

SPOT intensity | Binder
371 | B1
163 | B2
334 | B3

molecular target: T8, Lsb3, P43603; assay: SPOT array; settings: median of control spots 406

SPOT intensity | Binder
0 | B1
0 | B2
0 | B3

molecular target: Bem1-2, P29366; assay: SPOT array; settings: median of control spots 4347
Sequence (P29366 139-227): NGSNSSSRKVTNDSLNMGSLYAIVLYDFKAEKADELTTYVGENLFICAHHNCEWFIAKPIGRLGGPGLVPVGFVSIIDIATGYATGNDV

SPOT intensity | Binder
3 | B1
0 | B2
1 | B3

molecular target: T9, Cyk3, Q07533; assay: SPOT array; settings: median of control spots 1451

SPOT intensity | Binder
0 | B1
0 | B2
0 | B3

molecular target: T10, Lsb1, P53281; assay: SPOT array; settings: median of control spots 388

SPOT intensity | Binder
0 | B1
0 | B2
0 | B3

molecular target: T11, Bud14, P27637; assay: SPOT array; settings: median of control spots 956

SPOT intensity | Binder
1 | B1
0 | B2
0 | B3

molecular target: T12, Hse1, P38753; assay: SPOT array; settings: median of control spots 1727

SPOT intensity | Binder
0 | B1
0 | B2
0 | B3

molecular target: T13, Fus1, P11710; assay: SPOT array; settings: median of control spots 1200

SPOT intensity | Binder
0 | B1
0 | B2
0 | B3

molecular target: T14, Myo5, Q04439; assay: SPOT array; settings: median of control spots 471

SPOT intensity | Binder
227 | B1
49 | B2
242 | B3

molecular target: Rvs167, P39743; assay: SPOT array; settings: median of control spots 2707
Sequence (P39743 419-482): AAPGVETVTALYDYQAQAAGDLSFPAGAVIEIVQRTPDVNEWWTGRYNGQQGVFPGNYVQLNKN

SPOT intensity | Binder
0 | B1
0 | B2
0 | B3

molecular target: T15, Lsb4, P32793; assay: SPOT array; settings: median of control spots 397

SPOT intensity | Binder
0 | B1
0 | B2
0 | B3

molecular target: T16, Pex13, P80667; assay: SPOT array; settings: median of control spots 1341

SPOT intensity | Binder
0 | B1
0 | B2
0 | B3

molecular target: Bem1-1, P29366; assay: SPOT array; settings: median of control spots 4282
Sequence (P29366 55-141): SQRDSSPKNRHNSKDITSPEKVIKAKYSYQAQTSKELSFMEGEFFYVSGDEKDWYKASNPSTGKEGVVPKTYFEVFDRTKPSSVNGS

SPOT intensity | Binder
0 | B1
0 | B2
0 | B3

molecular target: T17, Boi1, P38041; assay: SPOT array; settings: median of control spots 1162

SPOT intensity | Binder
4 | B1
0 | B2
0 | B3

molecular target: Sho1, P40073; assay: SPOT array; settings: median of control spots 1148
Sequence (P40073 287-367): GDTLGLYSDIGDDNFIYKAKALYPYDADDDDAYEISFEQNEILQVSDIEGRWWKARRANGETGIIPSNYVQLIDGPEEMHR

SPOT intensity | Binder
0 | B1
0 | B2
0 | B3

molecular target: T18, Bzz1-2, P38822; assay: SPOT array; settings: median of control spots 4538

SPOT intensity | Binder
0 | B1
1 | B2
0 | B3

molecular target: T19, Hof1, Q05080; assay: SPOT array; settings: median of control spots 4086

SPOT intensity | Binder
0 | B1
0 | B2
0 | B3

molecular target: T20, Nbp2, Q12163; assay: SPOT array; settings: median of control spots 357

SPOT intensity | Binder
0 | B1
0 | B2
0 | B3

molecular target: T21, Cdc25, P04821; assay: SPOT array; settings: median of control spots 969

SPOT intensity | Binder
3 | B1
0 | B2
0 | B3
